Drawing on US20250179195A1, this text covers Kd, koff and kon for three molecules.

Changes are numbered by the printed parent chain.

The labels stand for the following.
B1: Fab fragment of antibody 17566 (Fab, V domains shown)
VH: QVTLKESGPVLVKPTETLTLTCTVSGFSFNNARMGVNWIRQPPGKALEWLAHIFSNDEKSYSTSLKSRLTISKDISKSQVVLTMTNMDPVDTATYYCARIVGYGSGWRLLGDYWGQGTLVTVSS
VL: AIQMTQSPSSLSASVGDRVTITCRASQGITNDLGWYQQKPGKAPKLLIYAASSLQSGVPSRFSGSGSGTDFTLTISSLQPEDFATYYCLQDYNYPWTFGQGTKVEIK
B2: Fab fragment of antibody 17543 (Fab, V domains shown)
VH: QVTLKESGPVLVKPTETLTLTCTVSGFSLINARMGVTWIRQPPGKALEWLAHIFSNDEKSYSTSLKSRLTISKDTSKSQVVLTMTNMDPVDTATYYCARIPGYSRGWDYYYYGMDVWGQGTMVTVSS
VL: B1 VL with A1D, T30R, L46R, S53T, D70E, D91H, Y92N, N93S
B3: Fab fragment of antibody 17497 (Fab, V domains shown)
VH: QVQLQESGPGLVKPSGTLSLTCAVSGGSISSTNWWSWVRQPPGKGLEWIGEISHRGSTNYNPSLKSRVTISVDKSKNQFSLKLSSVTAADTAVYYCARDPEMTLYYYYGMDVWGQGTTVTVSS
VL: B1 VL with A1D, Q27R, T30R, L46R, D70E, D91H, Y92N, N93S, W96L, Q100G

For this test, the target named is human FLT3 domain 1 Fc fusion protein (wild type) (human) (UniProt P36888). As to the kind of experiment: SPR (Carterra LSA); FLT3 D1-Fc captured on anti-human Ig Fc, Fab as analyte; mean ± SEM, n=4.
For B1, the Kd amounted to 5.2 nM, the koff was found to be 0.0046 s⁻¹ and the kon came to 890000 M⁻¹ s⁻¹.

With B2, the Kd stood at 19.3 nM, the koff worked out at 0.0099 s⁻¹ and the kon was 520000 M⁻¹ s⁻¹.

In turn, B3 returned a Kd of 3.1 nM, a koff of 0.003 s⁻¹ and a kon of 980000 M⁻¹ s⁻¹.

For orientation: Kd means a measure of binding affinity in units of concentration. A low value points to higher affinity. By koff is commonly meant the first-order rate constant of dissociation. By kon is commonly meant the second-order rate constant of association. A high value points to faster complex formation.
